# In US20180118789A1 (REGENTS OF THE UNIVERSITY OF MINNESOTA, published 2018):
# Non-standard residues stand in square brackets, D forms with d. Dap = NC[C@H](N)C(=O)O
# How the values were obtained:
# Experiment in all cases: cell-based or functional assay
# [1] = molecular target: T1, mouse melanocortin 5 receptor (mouse, UniProt P41149 1-325)
# [2] = molecular target: T2, mouse melanocortin 1 receptor (mouse, UniProt Q01727 1-315)
# [3] = molecular target: T3, mouse melanocortin 3 receptor (mouse, UniProt P33033 1-323)
# T3 sequence (P33033 whole entry): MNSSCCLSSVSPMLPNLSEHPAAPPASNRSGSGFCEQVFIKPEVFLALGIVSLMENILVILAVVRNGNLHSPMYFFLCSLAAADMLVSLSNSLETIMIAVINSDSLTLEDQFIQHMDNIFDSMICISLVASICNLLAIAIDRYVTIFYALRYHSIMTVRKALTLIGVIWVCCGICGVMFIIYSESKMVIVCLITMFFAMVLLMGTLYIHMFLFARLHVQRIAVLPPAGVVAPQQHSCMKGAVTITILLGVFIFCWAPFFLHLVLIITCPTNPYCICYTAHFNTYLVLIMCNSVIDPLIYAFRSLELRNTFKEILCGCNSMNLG
# [4] = molecular target: T4, mouse melanocortin 4 receptor (mouse, UniProt P56450 1-332)
# T4 sequence (P56450 whole entry): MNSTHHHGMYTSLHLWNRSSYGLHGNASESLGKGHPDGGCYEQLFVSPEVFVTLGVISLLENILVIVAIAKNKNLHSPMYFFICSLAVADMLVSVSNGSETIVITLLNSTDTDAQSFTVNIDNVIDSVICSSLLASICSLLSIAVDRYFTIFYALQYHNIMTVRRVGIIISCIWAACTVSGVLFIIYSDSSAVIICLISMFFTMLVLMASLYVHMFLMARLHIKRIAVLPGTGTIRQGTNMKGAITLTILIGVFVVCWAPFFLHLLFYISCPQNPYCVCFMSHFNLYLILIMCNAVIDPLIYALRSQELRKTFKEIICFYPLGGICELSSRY
# [5] = molecular target: T2, mouse melanocortin 1 receptor; remark: listed apart in the source
# [6] = molecular target: T4, mouse melanocortin 4 receptor; remark: listed apart in the source
# [7] = molecular target: T1, mouse melanocortin 5 receptor; remark: listed apart in the source
# [8] = molecular target: T3, mouse melanocortin 3 receptor; remark: listed apart in the source
# T1 sequence (P41149 whole entry): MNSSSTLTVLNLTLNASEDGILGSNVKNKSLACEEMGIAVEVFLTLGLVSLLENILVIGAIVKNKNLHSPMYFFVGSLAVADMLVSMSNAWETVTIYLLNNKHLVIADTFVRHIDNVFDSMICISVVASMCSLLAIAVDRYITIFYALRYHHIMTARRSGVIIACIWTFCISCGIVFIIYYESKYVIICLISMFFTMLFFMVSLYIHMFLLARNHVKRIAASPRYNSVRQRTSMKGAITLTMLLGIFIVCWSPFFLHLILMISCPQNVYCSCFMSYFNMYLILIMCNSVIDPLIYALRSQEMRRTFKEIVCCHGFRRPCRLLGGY
# T2 sequence (Q01727 whole entry): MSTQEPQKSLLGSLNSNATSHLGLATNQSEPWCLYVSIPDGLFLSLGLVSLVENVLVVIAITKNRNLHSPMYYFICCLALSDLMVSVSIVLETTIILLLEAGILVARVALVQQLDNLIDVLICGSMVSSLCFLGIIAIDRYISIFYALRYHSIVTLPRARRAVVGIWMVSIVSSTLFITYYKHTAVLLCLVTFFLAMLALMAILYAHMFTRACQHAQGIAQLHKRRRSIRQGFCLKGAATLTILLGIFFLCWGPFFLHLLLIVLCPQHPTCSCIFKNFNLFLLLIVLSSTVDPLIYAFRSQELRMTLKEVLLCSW
binder,measurement,setting,value
"cyclo(PH[dF]RW[Dap]A[dP]) (also: TFA salt) [MDE6-5-2c, c[Pro-His-DPhe-Arg-Trp-Dap-Ala-DPro]]","EC50 (nM), agonist, cAMP AlphaScreen",[1],0.3 nM
same,"EC50 (nM), agonist, cAMP AlphaScreen",[2],1.1 nM
same,"EC50 (nM), agonist, cAMP AlphaScreen",[3],40 nM
same,"EC50 (nM), agonist, cAMP AlphaScreen",[4],1.6 nM
"cyclo(P[dF]RWNA[dP]) (also: TFA salt) [MDE6-3-1c, c[Pro-DPhe-Arg-Trp-Asn-Ala-DPro]]","EC50 (nM), agonist, cAMP AlphaScreen",[1],70 nM
same,"EC50 (nM), agonist, cAMP AlphaScreen",[2],500 nM
same,percent maximal stimulatory response observed at 100 µM,[3],55%
same,"EC50 (nM), agonist, cAMP AlphaScreen",[4],420 nM
"cyclo(P[dF]RWN[dP]) (also: TFA salt) [MDE6-10-1c, c[Pro-DPhe-Arg-Trp-Asn-DPro]]",fold increase of agonist potency over MDE5-149-1c,[5],10 fold
same,fold decrease of agonist potency against MDE5-149-1c,[6],8 fold
same,percent maximal stimulatory response observed at 100 µM,[1],25%
same,"EC50 (nM), agonist, cAMP AlphaScreen",[2],40 nM
same,"EC50 (nM), agonist, cAMP AlphaScreen (lacked agonist activity at up to 100 µM)",[3],> 100000 nM
same,"EC50 (nM), agonist, cAMP AlphaScreen",[4],1100 nM
"cyclo(PH[dF]RW[dP]) (also: TFA salt) [MDE5-147-2c, c[Pro-His-DPhe-Arg-Trp-DPro]]","EC50 (nM), agonist, cAMP AlphaScreen",[1],6000 nM
same,"EC50 (nM), agonist, cAMP AlphaScreen",[2],900 nM
same,percent maximal stimulatory response observed at 100 µM,[3],60%
same,percent maximal stimulatory response observed at 100 µM,[4],65%
"cyclo(PH[dF]RW[Dap]AF[dP]) (also: TFA salt) [MDE5-151-2c, c[Pro-His-DPhe-Arg-Trp-Dap-Ala-Phe-DPro]]",fold decreased potency relative to MDE5-149-2c,[5],70 fold
same,"EC50 (nM), agonist, cAMP AlphaScreen",[1],18 nM
same,"EC50 (nM), agonist, cAMP AlphaScreen",[2],24 nM
same,"EC50 (nM), agonist, cAMP AlphaScreen",[3],260 nM
same,"apparent EC50 (nM), partial agonist, cAMP AlphaScreen",[4],23 nM
same,"partial agonist, percent maximal NDP stimulation",[4],70%
"cyclo(PH[dF]RW[Dap][dP]) (also: TFA salt) [MDE6-12-2c, c[Pro-His-DPhe-Arg-Trp-Dap-DPro]]",fold decrease of agonist potency relative to MDE6-5-2c,[7],1100 fold
same,fold decrease of agonist potency relative to MDE6-5-2c,[5],418 fold
same,fold decrease of agonist potency relative to MDE6-5-2c,[6],593 fold
same,"EC50 (nM), agonist, cAMP AlphaScreen",[1],330 nM
same,"EC50 (nM), agonist, cAMP AlphaScreen",[2],460 nM
same,percent maximal stimulatory response observed at 100 µM,[3],65%
same,"EC50 (nM), agonist, cAMP AlphaScreen",[4],950 nM
"cyclo(P[dF]RW[Dap]AF[dP]) (also: TFA salt) [MDE5-151-1c, c[Pro-DPhe-Arg-Trp-Dap-Ala-Phe-DPro]]","EC50 (nM), agonist, cAMP AlphaScreen",[1],46 nM
same,"apparent EC50 (nM), partial agonist, cAMP AlphaScreen",[2],190 nM
same,"partial agonist, percent maximal NDP stimulation",[2],45%
same,"apparent EC50 (nM), partial agonist, cAMP AlphaScreen",[3],3000 nM
same,"partial agonist, percent maximal NDP stimulation",[3],70%
same,"EC50 (nM), agonist, cAMP AlphaScreen",[4],100 nM
"cyclo(PH[dF]RWNA[dP]) (also: TFA salt) [MDE6-3-2c, c[Pro-His-DPhe-Arg-Trp-Asn-Ala-DPro]]",fold loss of agonist potency relative to MDE5-149-2c,[7],5 fold
same,fold loss of agonist potency relative to MDE5-149-2c,[5],34 fold
same,fold loss of agonist potency relative to MDE5-149-2c,[8],9 fold
same,fold loss of agonist potency relative to MDE5-149-2c,[6],21 fold
same,"EC50 (nM), agonist, cAMP AlphaScreen",[1],2.1 nM
same,"EC50 (nM), agonist, cAMP AlphaScreen",[2],12 nM
same,"EC50 (nM), agonist, cAMP AlphaScreen",[3],300 nM
same,"EC50 (nM), agonist, cAMP AlphaScreen",[4],29 nM
"cyclo(PH[dF]RWNAF[dP]) (also: TFA salt) [MDE5-149-2c, c[Pro-His-DPhe-Arg-Trp-Asn-Ala-Phe-DPro]]","EC50 (nM), agonist, cAMP AlphaScreen",[1],0.45 nM
same,"EC50 (nM), agonist, cAMP AlphaScreen",[2],0.35 nM
same,"EC50 (nM), agonist, cAMP AlphaScreen",[3],32 nM
same,"EC50 (nM), agonist, cAMP AlphaScreen",[4],1.4 nM
"cyclo(P[dF]RW[Dap]A[dP]) (also: TFA salt) [MDE6-5-1c, c[Pro-DPhe-Arg-Trp-Dap-Ala-DPro]]","EC50 (nM), agonist, cAMP AlphaScreen",[1],48 nM
same,"EC50 (nM), agonist, cAMP AlphaScreen",[2],600 nM
same,percent maximal stimulatory response observed at 100 µM,[3],70%
same,"EC50 (nM), agonist, cAMP AlphaScreen",[4],150 nM
"cyclo(P[dF]RW[dP]) (also: TFA salt) [MDE5-147-1c, c[Pro-DPhe-Arg-Trp-DPro]]",percent maximal stimulatory response observed at 100 µM,[1],75%
same,"EC50 (nM), agonist, cAMP AlphaScreen",[2],1800 nM
same,"EC50 (nM), agonist, cAMP AlphaScreen (lacked agonist activity at up to 100 µM)",[3],> 100000 nM
same,percent maximal stimulatory response observed at 100 µM,[4],50%
"cyclo(PH[dF]RWN[dP]) (also: TFA salt) [MDE6-10-2c, c[Pro-His-DPhe-Arg-Trp-Asn-DPro]]",fold decrease of agonist potency relative to MDE5-149-2c,[7],37 fold
same,fold decrease of agonist potency relative to MDE5-149-2c,[5],143 fold
same,fold decrease of agonist potency relative to MDE5-149-2c,[6],121 fold
same,"EC50 (nM), agonist, cAMP AlphaScreen",[1],16.8 nM
same,"EC50 (nM), agonist, cAMP AlphaScreen",[2],50 nM
same,"apparent EC50 (nM), partial agonist, cAMP AlphaScreen",[3],510 nM
same,"partial agonist, percent maximal NDP stimulation",[3],65%
same,"EC50 (nM), agonist, cAMP AlphaScreen",[4],170 nM
"cyclo(P[dF]RW[Dap][dP]) (also: TFA salt) [MDE6-12-1c, c[Pro-DPhe-Arg-Trp-Dap-DPro]]","EC50 (nM), agonist, cAMP AlphaScreen (lacked agonist activity at up to 100 µM)",[1],> 100000 nM
same,"apparent EC50 (nM), partial agonist, cAMP AlphaScreen",[2],110 nM
same,"partial agonist, percent maximal NDP stimulation",[2],75%
same,"EC50 (nM), agonist, cAMP AlphaScreen (lacked agonist activity at up to 100 µM)",[3],> 100000 nM
same,percent maximal stimulatory response observed at 100 µM,[4],35%
"cyclo(P[dF]RWNAF[dP]) (also: TFA salt) [MDE5-149-1c, c[Pro-DPhe-Arg-Trp-Asn-Ala-Phe-DPro]]",fold decreased potency relative to MDE5-149-2c,[7],90 fold
same,fold decreased potency relative to MDE5-149-2c,[5],1140 fold
same,fold decreased potency relative to MDE5-149-2c,[6],90 fold
same,"EC50 (nM), agonist, cAMP AlphaScreen",[1],40 nM
same,"EC50 (nM), agonist, cAMP AlphaScreen",[2],400 nM
same,percent maximal stimulatory response observed at 100 µM,[3],45%
same,"EC50 (nM), agonist, cAMP AlphaScreen",[4],130 nM
